Laboratory results taken from patent publication US20040229309A1 (KUMAMOTO TECHNOLOGY AND INDUSTRY FOUNDATION, published 2004).

Biological target: T1, mouse GANP protein (mouse, UniProt Q9WUU9 1-1971)
T1 construct: Endogenous 210-kD protein in lysates, cytoplasmic and nuclear fractions of WEHI-231 cells and in mouse spleen B cells; The deduced polypeptide has 1971 amino acids; It is phosphorylated at serine/threonine in the in vitro kinase reactions; also called GANP antigen; 29-15 Ag
Test: co-immunoprecipitation from WEHI-231 lysate, Western blot with anti-MCM3; in vitro kinase assay and V8 cleavage mapping

T1 sequence (Q9WUU9 other isoform, or with tags, fused parts or gaps limits assumed): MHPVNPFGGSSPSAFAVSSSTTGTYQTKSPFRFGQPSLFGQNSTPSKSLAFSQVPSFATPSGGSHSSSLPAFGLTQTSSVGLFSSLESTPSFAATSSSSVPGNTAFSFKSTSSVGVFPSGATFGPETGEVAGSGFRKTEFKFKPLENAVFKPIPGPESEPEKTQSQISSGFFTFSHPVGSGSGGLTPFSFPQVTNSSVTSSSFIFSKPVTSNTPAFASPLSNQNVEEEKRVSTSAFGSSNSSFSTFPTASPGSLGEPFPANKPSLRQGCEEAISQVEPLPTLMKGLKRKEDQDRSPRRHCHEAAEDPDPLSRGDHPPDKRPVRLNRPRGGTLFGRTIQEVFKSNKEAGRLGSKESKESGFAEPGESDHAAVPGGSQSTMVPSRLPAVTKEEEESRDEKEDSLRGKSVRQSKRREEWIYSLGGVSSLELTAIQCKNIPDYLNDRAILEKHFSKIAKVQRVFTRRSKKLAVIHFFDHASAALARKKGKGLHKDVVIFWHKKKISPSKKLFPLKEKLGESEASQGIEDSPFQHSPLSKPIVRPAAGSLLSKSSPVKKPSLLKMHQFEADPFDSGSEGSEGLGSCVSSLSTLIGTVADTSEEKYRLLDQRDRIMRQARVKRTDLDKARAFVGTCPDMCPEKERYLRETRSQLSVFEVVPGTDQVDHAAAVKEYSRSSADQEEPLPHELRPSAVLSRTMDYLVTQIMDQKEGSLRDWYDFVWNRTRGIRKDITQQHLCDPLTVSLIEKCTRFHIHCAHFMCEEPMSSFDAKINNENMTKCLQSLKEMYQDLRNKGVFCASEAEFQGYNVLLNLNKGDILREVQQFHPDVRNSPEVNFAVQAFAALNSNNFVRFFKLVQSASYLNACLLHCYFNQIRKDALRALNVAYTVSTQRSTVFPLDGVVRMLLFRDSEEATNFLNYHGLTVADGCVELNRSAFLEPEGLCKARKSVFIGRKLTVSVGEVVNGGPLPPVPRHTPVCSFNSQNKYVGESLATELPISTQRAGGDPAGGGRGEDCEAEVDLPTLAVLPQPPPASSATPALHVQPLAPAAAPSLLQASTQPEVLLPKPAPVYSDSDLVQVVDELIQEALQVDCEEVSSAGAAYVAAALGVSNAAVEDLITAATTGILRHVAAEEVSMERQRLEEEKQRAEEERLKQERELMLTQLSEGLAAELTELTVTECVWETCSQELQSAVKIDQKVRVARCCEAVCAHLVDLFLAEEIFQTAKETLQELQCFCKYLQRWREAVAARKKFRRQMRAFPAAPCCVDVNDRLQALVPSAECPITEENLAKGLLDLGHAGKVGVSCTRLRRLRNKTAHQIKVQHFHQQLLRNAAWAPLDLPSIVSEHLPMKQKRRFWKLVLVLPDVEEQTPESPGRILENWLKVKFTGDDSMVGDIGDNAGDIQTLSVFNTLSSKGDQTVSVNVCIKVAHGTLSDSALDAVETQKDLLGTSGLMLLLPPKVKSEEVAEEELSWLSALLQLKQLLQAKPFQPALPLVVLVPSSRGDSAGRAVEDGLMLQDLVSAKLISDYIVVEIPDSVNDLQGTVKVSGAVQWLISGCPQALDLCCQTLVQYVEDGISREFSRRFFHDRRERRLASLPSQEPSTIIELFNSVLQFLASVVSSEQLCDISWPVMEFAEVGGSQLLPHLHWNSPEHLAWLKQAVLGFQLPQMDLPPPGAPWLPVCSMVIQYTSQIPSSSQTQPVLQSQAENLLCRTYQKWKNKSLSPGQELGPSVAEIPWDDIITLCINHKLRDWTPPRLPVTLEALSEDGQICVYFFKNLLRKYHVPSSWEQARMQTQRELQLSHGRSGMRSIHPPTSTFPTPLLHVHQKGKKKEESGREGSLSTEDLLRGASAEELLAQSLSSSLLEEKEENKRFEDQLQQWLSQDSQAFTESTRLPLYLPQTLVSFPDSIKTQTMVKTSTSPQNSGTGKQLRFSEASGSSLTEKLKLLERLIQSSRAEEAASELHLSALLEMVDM

B1: MCM3 protein (other, mouse, UniProt P25206 2-812, looked up)
chain: AGTVVLDDVELREAQRDYLDFLDDEEDQGIYQNKVRELISDNQYRLIVSVNDLRRKNEKRANRLLNNAFEELVAFQRALKDFVASIDATYAKQYEEFYIGLEGSFGSKHVSPRTLTSCFLSCVVCVEGIVTKCSLVRPKVVRSVHYCPATKKTIERRYSDLTTLVAFPSSSVYPTKDEENNPLETEYGLSVYKDHQTITIQEMPEKAPAGQLPRSVDVILDDDLVDKVKPGDRIQVVGTYRCLPGKKGCYTSGTFRTVLIACNVKQMSKDIQPAFSADDIAKIKKFSKTRSKDVFEQLARSLAPSIHGHDYVKKAILCLLLGGVERELENGSHIRGDINILLIGDPSVAKSQLLRYVLCTAPRAIPTTGRGSSGVGLTAAVTTDQETGERRLEAGAMVLADRGVVCIDEFDKMSDMDRTAIHEVMEQGRVTIAKAGIHARLNARCSVLAAANPVYGRYDQYKTPMENIGLQDSLLSRFDLLFIMLDQMDPEQDREISDHVLRMHQYRAPGEQDGDALPLGSSVDILATDDPDFTQDDQQDTRIYEKHDSLLHGTKKKKEKMVSAAFMKKYIHVAKIIKPTLTQESAAYIAEEYSRLRSQDSMSSDTARTSPVTARTLETLIRLATAHAKARMSKTVDLQDAEEAVELVQYAYFKKVLEKEKKRKKASEDESDLEDEEEKSQEDTEQKRKRRKTHAKDGESYDPYDFSEAETQMPQVHTPKTDDSQEKTDDSQETQDSQKVELSEPRLKAFKAALLEVFQEAHEQSVGMLHLTESINRNREEPFSSEEIQACLSRMQDDNQVMVSEGIVFLI
notes: also called MCM3/P1
- binding result: binds
